Test [1] concerns the target human IL1RAP Domain1+2 (aa21-234) (human, UniProt Q9NPH3). The test is described as follows: ELISA.
The target in a further test is T1, rat IL1RAP (rat, UniProt Q63621).
T1 chain: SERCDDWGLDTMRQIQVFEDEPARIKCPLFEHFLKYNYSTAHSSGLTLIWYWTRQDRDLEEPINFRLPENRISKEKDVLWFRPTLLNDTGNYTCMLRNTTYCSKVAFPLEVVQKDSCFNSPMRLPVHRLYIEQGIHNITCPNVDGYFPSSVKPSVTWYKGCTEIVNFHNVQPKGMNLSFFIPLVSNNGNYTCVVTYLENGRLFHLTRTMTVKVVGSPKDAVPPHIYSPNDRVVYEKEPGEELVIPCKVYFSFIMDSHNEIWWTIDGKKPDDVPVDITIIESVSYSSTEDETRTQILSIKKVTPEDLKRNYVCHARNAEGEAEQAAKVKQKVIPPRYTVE
The test is described as follows: ELISA.

The target of the next test is T2, mouse IL1RAP (mouse, UniProt Q61730).
T2 chain: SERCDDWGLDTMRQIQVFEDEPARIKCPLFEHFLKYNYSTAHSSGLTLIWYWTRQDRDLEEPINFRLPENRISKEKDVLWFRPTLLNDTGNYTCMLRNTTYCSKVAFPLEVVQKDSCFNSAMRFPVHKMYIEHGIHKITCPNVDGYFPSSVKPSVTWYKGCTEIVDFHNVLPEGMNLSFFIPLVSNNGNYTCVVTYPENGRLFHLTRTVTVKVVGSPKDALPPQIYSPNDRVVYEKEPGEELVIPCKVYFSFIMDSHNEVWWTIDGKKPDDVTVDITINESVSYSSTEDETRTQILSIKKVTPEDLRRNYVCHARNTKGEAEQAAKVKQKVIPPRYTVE
The experiment in a line: ELISA.

Test [2] concerns the target human IL1RAP ectodomain (aa21-367) (human, UniProt Q9NPH3). The experiment in a line: BLI.

3 molecules from patent publication US20260317434 (published 2026) can be followed below.

B1: 43F5 (antibody, V domains shown)
VH: QSLEESGGRLVTPGTPLTLTCKASGFSLSNYWMSWVRQAPGKGLEWIGFITSSDNTYYASWAKGRFTISKASSTTVGLKMTSPTTEDTATYFCARDISGINSVVLWGQGTLVTVSS
VL: DVVMTQTPASVSEPVGGTVTINCQASQSIDSYLSWYQQKPGQPPKFLIYGASNLASGVPSRFKGSRSGTEYTLTISDLECADAATYYCQCTDYSINYIGAFGGGTKVVVE
In the case of B1, the binding result in test [1] is “no binding”.

B2: 48A5 (antibody, V domains shown)
VH: QEQLEESEGGLFKPTETLTLTCTVSGFSLSYDITWVRQAPGNGLEWIGTIDTSSNTYHATWAKSRSTITKNTNLNTVTLKMTSLTAADTATYFCARGGVHAYAYAPAAFDPWGPGTLVTISS
VL: APVLTQTPSPVSAAVGGTVTISCQSSQSVYNDAYLAWYQQKPGQPPKLLIYLASTLASGVPSRFSGSGSGTQFTLTISGVQCEDAATYYCQGAYYSNDWYYVFGGGTEVVVK
On to B2, for which the binding result (in test [1]; in the test with rat IL1RAP; with mouse IL1RAP) was “no binding” throughout.

B3: 3G5 (antibody, V domains shown)
VH: EVQLVESGGVLVKPGGSLKLSCAASGFTFSDYAMSWVRQTPEKRLEWVATITDGGSYAYYTDDVKGRFTVSRDNARNNLFLQMSHLRSEDTGIYYCSRDRWPYYFDFWGRGTTLTVSS
VL: DIQMTQSPTSLSVSVGETVTITCRISENIYSNLAWYQQKEGKSPQLLVYAATKLADGVPSRFSGSGSGTQYSLKINSLQSEDFGNYYCQHFWTTPRTFGGGTKVEIK
For the molecule B3, the binding result (in test [1]; in the test with rat IL1RAP; with mouse IL1RAP) was “no binding” each time. Besides, in test [2], the Kd stood at 0.285 nM.
